B1: 30AATT (dsDNA)
DNA 1: ATCAGATAGCATCAATTCGGCCGCTTAGGG
DNA 2: CCCTAAGCGGCCGAATTGATGCTATCTGAT
modifications: 4 central bp of 30Blunt (TGTG) replaced by AATT
B2: 30Blunt (dsDNA)
DNA 1: ATCAGATAGCATCTGTGCGGCCGCTTAGGG
DNA 2: CCCTAAGCGGCCGCACAGATGCTATCTGAT

Columns and labels:
[1] = biological target: N-parp (Zn1-Zn3 and BRCT) (UniProt P09874 1-486); test: HI-FI FRET
PARP-1 (full-length) = PARP-1 (full-length) (human, UniProt P09874 1-1014, V762A); test: HI-FI FRET
PARP-1 (full-length), sequence (P09874 whole entry V762A): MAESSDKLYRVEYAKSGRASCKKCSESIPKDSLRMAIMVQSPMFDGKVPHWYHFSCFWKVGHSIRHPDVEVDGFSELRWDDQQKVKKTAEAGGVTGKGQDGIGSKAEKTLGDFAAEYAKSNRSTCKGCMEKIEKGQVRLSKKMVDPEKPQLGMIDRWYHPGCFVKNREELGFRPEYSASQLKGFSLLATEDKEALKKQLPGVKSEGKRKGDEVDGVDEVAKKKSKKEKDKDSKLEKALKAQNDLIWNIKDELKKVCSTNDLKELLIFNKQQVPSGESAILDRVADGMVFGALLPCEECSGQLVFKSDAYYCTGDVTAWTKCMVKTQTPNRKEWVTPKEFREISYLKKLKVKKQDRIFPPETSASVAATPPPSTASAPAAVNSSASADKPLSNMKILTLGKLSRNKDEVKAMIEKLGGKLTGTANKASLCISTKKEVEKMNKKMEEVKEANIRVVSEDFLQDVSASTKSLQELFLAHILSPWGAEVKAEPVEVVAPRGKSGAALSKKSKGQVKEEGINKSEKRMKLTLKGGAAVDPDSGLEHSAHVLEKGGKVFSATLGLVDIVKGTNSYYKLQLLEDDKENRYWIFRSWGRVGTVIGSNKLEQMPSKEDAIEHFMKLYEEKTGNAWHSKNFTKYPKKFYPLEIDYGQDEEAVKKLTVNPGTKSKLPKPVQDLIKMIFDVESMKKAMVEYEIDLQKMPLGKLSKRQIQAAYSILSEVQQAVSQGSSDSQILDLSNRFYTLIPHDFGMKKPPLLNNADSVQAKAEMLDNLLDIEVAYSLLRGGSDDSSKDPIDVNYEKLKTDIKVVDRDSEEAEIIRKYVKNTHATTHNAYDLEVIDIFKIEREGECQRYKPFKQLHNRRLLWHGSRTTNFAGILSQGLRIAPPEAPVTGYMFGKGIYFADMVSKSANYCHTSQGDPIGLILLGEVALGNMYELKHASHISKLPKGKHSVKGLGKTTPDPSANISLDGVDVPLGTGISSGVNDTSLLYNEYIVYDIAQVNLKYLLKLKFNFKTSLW

N-parp (Zn1-Zn3 and BRCT), sequence (P09874 1-486): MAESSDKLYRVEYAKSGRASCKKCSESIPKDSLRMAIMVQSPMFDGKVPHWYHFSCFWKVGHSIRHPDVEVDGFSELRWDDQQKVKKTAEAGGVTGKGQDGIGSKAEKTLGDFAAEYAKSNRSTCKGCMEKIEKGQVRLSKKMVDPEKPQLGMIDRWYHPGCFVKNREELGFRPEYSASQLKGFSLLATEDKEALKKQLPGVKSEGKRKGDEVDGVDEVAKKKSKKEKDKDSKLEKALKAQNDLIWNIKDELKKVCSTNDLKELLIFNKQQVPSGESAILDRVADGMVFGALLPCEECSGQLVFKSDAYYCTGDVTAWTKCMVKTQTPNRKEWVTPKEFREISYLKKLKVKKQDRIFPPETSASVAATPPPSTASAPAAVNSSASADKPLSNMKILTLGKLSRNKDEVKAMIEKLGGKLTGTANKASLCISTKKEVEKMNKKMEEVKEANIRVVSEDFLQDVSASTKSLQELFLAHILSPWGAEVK

Binder | Kd [1] | Kd (PARP-1 (full-length))
B1 | 25.7 ± 0.9 nM | 8.5 ± 2.1 nM
B2 | 62.2 ± 10.2 nM | 31.7 ± 6.9 nM

Reference: article PMC3463355
